The text below walks through data of patent US20250243282A1 (TRUEBINDING, published 2025).

Test [1] has as its target T1, human Gal3 protein (recombinant human Galectin-3) (human, UniProt P17931 2-250).
T1 construct: also called hGal3; hGAL3

Test [2] deals with T2, Recombinant human Gal3 (rhGal3) (TrueBinding, #QC200361) (human, UniProt P17931 2-250). The test is described as follows: cell-based or functional assay.
The target in test [3] is T2, Recombinant human Gal3 (rhGal3) …. Nature of the test: cell-based or functional assay. The source holds these as a separate data set.
Test [4] addresses T1, human Gal3 protein (recombinant human …). The test is described as follows: ELISA, hGal3 coated, receptor in solution. Background: In an ELISA, binding on a coated surface is turned into a signal by an enzyme label.
Test [5] has as its target T2, Recombinant human Gal3 (rhGal3) …. The test is described as follows: cell-based or functional assay. This is another data set of the same source.
Test [6] addresses T1, human Gal3 protein (recombinant human …). Nature of the test: ELISA blocking assay (blocked partner not stated), in-use stability bag #1, 0.5 h.
Test [7] shares this target. Nature of the test: ELISA blocking assay (blocked partner not stated), in-use stability bag #2, 0.5 h.
The target is the same in test [8]. The test is described as follows: ELISA biological activity, accelerated stability 25°C/60% RH, 3 months.
Test [9] shares this target. Nature of the test: ELISA blocking assay (blocked partner not stated), in-use stability bag #1, 2 h.
For test [10] the target is unchanged. Nature of the test: ELISA biological activity, accelerated stability 25°C/60% RH, 1 month.
For test [11] the target is unchanged. The test is described as follows: ELISA blocking assay (blocked partner not stated), in-use stability bag #1, 0 h; Bag #1, 0 h.
The target is the same in test [12]. The test is described as follows: method not stated (FIG. 20).
The next test deals with mouse Gal3 (mouse, UniProt P16110 2-264). The test is described as follows: method not stated (FIG. 20).
mouse Gal3, sequence (P16110 2-264 limits assumed): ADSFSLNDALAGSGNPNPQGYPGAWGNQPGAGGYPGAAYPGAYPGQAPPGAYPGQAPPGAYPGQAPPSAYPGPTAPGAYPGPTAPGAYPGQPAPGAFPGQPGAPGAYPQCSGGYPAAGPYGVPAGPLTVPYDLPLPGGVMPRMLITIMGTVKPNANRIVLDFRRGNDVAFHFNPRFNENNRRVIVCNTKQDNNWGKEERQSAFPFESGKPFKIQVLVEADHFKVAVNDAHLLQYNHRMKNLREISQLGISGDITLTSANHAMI
Test [13] concerns the target T1, human Gal3 protein (recombinant human …). Nature of the test: ELISA biological activity, long-term stability 5°C, 0 months; 5° C., 0 months.
The target is the same in test [14]. The test is described as follows: ELISA biological activity, accelerated stability 25°C/60% RH, 0 months.
Test [15] has the same target. Nature of the test: ELISA blocking assay (blocked partner not stated), in-use stability bag #2, 2 h.
Test [16] has the same target. Nature of the test: BLI binding activity, long-term stability 5°C, 1 month. On the technique in general: Biolayer interferometry detects binding as a change in optical thickness at a sensor tip.
For test [17] the target is unchanged. The test is described as follows: ELISA blocking assay (blocked partner not stated), in-use stability bag #1, 4 h.
Test [18] has the same target. The test is described as follows: BLI binding activity, accelerated stability 25°C/60% RH, 0 months.
Test [19] has the same target. The test is described as follows: ELISA blocking assay (blocked partner not stated), in-use stability bag #2, 0 h.
The target is the same in test [20]. The test is described as follows: ELISA blocking assay (blocked partner not stated), in-use stability bag #1, 1 h.
Test [21] has the same target. Nature of the test: ELISA biological activity, long-term stability 5°C, 3 months.
For test [22] the target is unchanged. The test is described as follows: ELISA blocking assay (blocked partner not stated), in-use stability bag #2, 1 h.
Test [23] has the same target. The test is described as follows: BLI binding activity, accelerated stability 25°C/60% RH, 3 months.
Test [24] shares this target. The test is described as follows: ELISA blocking assay (blocked partner not stated), in-use stability bag #2, 4 h.
The target is the same in test [25]. The test is described as follows: BLI binding activity, long-term stability 5°C, 3 months.
Test [26] has the same target. The test is described as follows: ELISA biological activity, long-term stability 5°C, 1 month.
Test [27] shares this target. The test is described as follows: BLI binding activity, long-term stability 5°C, 0 months.
Test [28] has the same target. Nature of the test: BLI binding activity, accelerated stability 25°C/60% RH, 1 month.

T1 sequence (P17931 2-250 limits assumed): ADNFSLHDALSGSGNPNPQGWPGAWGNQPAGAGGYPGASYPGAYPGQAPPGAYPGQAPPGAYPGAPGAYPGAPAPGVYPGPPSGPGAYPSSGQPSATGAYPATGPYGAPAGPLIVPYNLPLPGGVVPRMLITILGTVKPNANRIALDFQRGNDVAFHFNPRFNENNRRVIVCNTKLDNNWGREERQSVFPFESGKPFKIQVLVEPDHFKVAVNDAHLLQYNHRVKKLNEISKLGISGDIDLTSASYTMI

B1: mIMT001 (antibody, mouse IgG2a, V domains shown)
VH: QIQLVQSGPELKKPGETVKISCKASGYTFTNYGMNWVKQAPGKGLKWMGWINTNTGEPTYVEEFKGRFAFSLETSASTAYLQINNLKNEDTATYFCAPYDNFFAYWGQGTLVTVSA
VL: DIVITQDELSNPVTSGESVSISCRSSKSLLYKDGKTYLNWFLQRPGQSPQLLIYLMSTHASGVSDRFSGSGSGTDFTLEISRVKAEDVGVYYCQQLVDYPLTFGAGTKLELKR
notes: also called murine IMT1; mIMT1
Consider B1, for which the “% blocking” value in test [1] was more than 95%.

B2: 24D12.2H9 (antibody, human IgG4 S228P, kappa, V domains shown)
VH: QVQLKQSGPGLVQPSQSLSITCTVSGFSLTSYGVHWVRQAPGKGLEWLGVIWSGGSTDYNAAFMSRLSISKDNSKSQVFFKMNSLQADDTAIYYCAKSPDGYDVAWFGYWGQGTLVTVSA
VL: DIVMTQSHKFMSTSVGDRVSITCKASQDVRTAVAWYQQKPGQSPKLLIYWASTRHTGVPDRFTGSGSGTDFTLTLSNVQSEDLADYFCQQYSSYPWTFGGGTKLEIKR
Consider B2, for which, in test [1], the “% blocking” value worked out at 55%. Further, in [2], the “% inhibition of IL-6 secretion” value turned out to be 22.3% and the “% inhibition of TNFα secretion” value amounted to 46.5%. The “% inhibition of CD62L shedding” value in test [3] amounted to 73.1%.

B3: recombinant human CD147, 6xHis-tagged (R&D Systems, 972-EMN) (receptor, not shown: small tags and cut ends)
chain: AAGTVFTTVEDLGSKILLTCSLNDSATEVTGHRWLKGGVVLKEDALPGQKTEFKVDSDDQWGEYSCVFLPEPMGTANIQLHGPPRVKAVKSSEHINEGETAMLVCKSESVPPVTDWAWYKITDSEDKALMNGSESRFFVSSSQGRSELHIENLNMEADPGQYRCNGTSSKGSDQAIITLRVRSHLAAL
notes: also called hCD147; EMMPRIN
Consider B3, for which the binding result in [4] was “binds”.

B4: 6H6.2D6 (antibody, human IgG4 S228P, kappa, V domains shown)
VH: QIQLVQSGPELKKPGETVKISCKASGYTFTTYGMSWVKQAPGKGLKWMAWINTYSGVPTYADDFKGRFAFSLETSASTAYLQINNLTNEDTATYFCARGPYAMDYWGQGTSVTVSS
VL: DIQMTQTTSSLSASLGDRVTISCSASQGISNYLNWYQQKPDGTVKLLIYYTSSLHSGVPSRFSGSGSGTDYSLTISNLEPEDIATYYCQQYSELPYTFGSGTKLEIKR
B4: the “% blocking” value in test [1] is more than 95%.

B5: TB001 (antibody, human IgG4 S228P, kappa, V domains shown)
VH: QVQLVQSGSELKKPGASVKVSCKASGYTFTNYGMNWVRQAPGQGLKWMGWINTNTGEPTYVEEFTGRFVFSLETSVSTAYLQISSLKAEDTAVYFCAPYDNFFAYWGQGTTVTVSS
VL: DIVLTQSPLSLPVTPGEPASISCRSSKSLLYKDGKTYLNWFLQKPGQSPQLLIYLMSTHASGVPDRFSGSGSGTDFTLKISRVEAEDVGVYYCQQLVDYPLTFGGGTKLEIKR
With B5, in test [5], the “IC50 of blocking IL-6 secretion by HL60-derived neutrophils (rhGal3 + LPS)” value turned out to be 509 nM and the “IC50 of blocking TNFα secretion by HL60-derived neutrophils (rhGal3 + LPS)” value stood at 393 nM. Moreover, in test [2], the “% inhibition of IL-6 secretion” value turned out to be 45.6% and the “% inhibition of TNFα secretion” value turned out to be 81.4%. In addition, the “% inhibition of CD62L shedding” value in test [3] was found to be 87.2%.

B6: 2D10.2B2 (antibody, mouse IgG2a, V domains shown)
VH: QVQLQQSGPELVKPGASVKISCKASGYTFTDYYINWVKQRPGQGLEWIGWIYPGSNDTKYNEKFKGKATLTVDTSSSTAYMQLGSLTSEDSAVYFCANYFGCSGWFFDVWGTGTTVTVSS
VL: DIVMTQAAFSNPVTLGTSASISCRSSKSLLHSDGITYLYWYLQRPGQSPQLLIYRMSNLASGVPDRFSGSGSGTDFTLRISRVEAEDVGVYYCAQMIEFPLTFGAGTILELKR
As for B6, the “% blocking” value in test [1] was more than 95%.

B7: TB006 (antibody, human IgG4 S228P, kappa, V domains shown)
VH: QVQLVQSGAEVKKPGASVKVSCKASGYSFTNYYMHWVRQAPGQRLEWMGWIYPGSGNTNYNEKFQGRVTITADTSASTAYMELSSLRSEDTAVYYCSTAPGGFDVWGQGTTVTVSS
VL: DIVMTQTPLSLSVTPGQPASISCKSSKSLLHSDGITYLYWYLQKPGQSPQLLIYRMSNLASGVPDRFSGSGSGTDFTLKISRVEAEDVGVYYCAQMLEFPLTFGQGTKLEIKR
notes: also called 4A11.H3L1; IMT006a
Turning to B7, the IC50 in test [6] was 1.34 µg/mL; in [7] it was 1.66 µg/mL; in test [8], 1.5 µg/mL; in test [9] it was 1.71 µg/mL; in test [10] it was 1.8 µg/mL; in test [11], 1.01 µg/mL. Further, the IC50 amounted to 2.5 µg/mL in test [13]; 2.5 µg/mL in [14]; 1.67 µg/mL in test [15]; 1.41 µg/mL in test [17]; 1.05 µg/mL in [19]; 1.43 µg/mL in [20]. Further, the IC50 in test [21] is 1.5 µg/mL; in [22] it was 1.63 µg/mL; in test [24] it was 1.35 µg/mL; in [26], 1.8 µg/mL. The Kd in test [12] stood at 8.9 nM; with mouse Gal3, 40000 nM; in test [16], 2.5 nM; in test [18], 3 nM; in test [23] it was 3.1 nM; in [25] it was 3 nM. Besides, the Kd turned out to be 3 nM in [27] and 2.5 nM in test [28]. The “IC50 of blocking IL-6 secretion by HL60-derived neutrophils (rhGal3 + LPS)” value in test [5] stood at 33.7 nM. In addition, the “IC50 of blocking TNFα secretion by HL60-derived neutrophils (rhGal3 + LPS)” value in test [5] is 11.1 nM. Also, the “% inhibition of CD62L shedding” value in test [3] is 76.1%.

A word on the IC50: it is the point on the concentration scale where inhibition reaches its midpoint. Usually Kd stands for the constant that tells how readily two partners part at equilibrium.
